From US20050120396

B1: purified mouse MEKK1 (protein)
chain: MVTAVPAVFSKLVTMLNASGSTHFTRMRRRLMAIADEVEIAEVIQLGVEDTVDGHQDSLQAVAPTSCLENSSLEHTVHREKTGKGLSATRLSASSEDISDRLAGVSVGLPSSTTTEQPKPAVQTKGRPHSQCLNSSPLSHAQLMFPAPSAPCSSAPSVPDISKHRPQAFVPCKIPSASPQTQRKFSLQFQRNCSEHRDSDQLSPVFTQSRPPPSSNIHRPKPSRPVPGSTSKLGDATKSSMTLDLGSASRCDDSFGGGGNSGNAVIPSDETVFTPVEDKCRLDVNTELNSSIEDLLEASMPSSDTTVTFKSEVAVLSPEKAENDDTYKDDVNHNQKCKEKMEAEEEEALAIAMAMSASQDALPIVPQLQVENGEDIIIIQQDTPETLPGHTKAKQPYREDAEWLKGQQIGLGAFSSCYQAQDVGTGTLMAVKQVTYVRNTSSEQEEVVEALREEIRMMGHLNHPNIIRMLGATCEKSNYNLFIEWMAGGSVAHLLSKYGAFKESVVINYTEQLLRGLSYLHENQIIHRDVKGANLLIDSTGQRLRIADFGAAARLASKGTGAGEFQGQLLGTIAFMAPEVLRGQQYGRSCDVWSVGCAIIEMACAKPPWNAEKHSNHLALIFKIASATTAPSIPSHLSPGLRDVAVRCLELQPQDRPPSRELLKHPVFRTTW
B2: His-tagged hMEKK1 (polyhistidine-hMEKK1 fusion) (protein)
chain: HHHHHHMENKETLKGLHKMDDRPEERMIREKLKATCMPAWKHEWLERRNRRGPVVVKPIPVKGDGSEMNHLAAESPGEVQASAASPASKGRRSPSPGNSPSGRTVKSESPGVRRKRVSPVPFQSGRITPPRRAPSPDGFSPYSPEETNRRVNKVMRARLYLLQQIGPNSFLIGGDSPDNKYRVFIGPQNCSCARGTFCIHLLFVMLRVFQLEPSDPMLWRKTLKNFEVESLFQKYHSRRSSRIKAPSRNTIQKFVSRMSNSHTLSSSSTSTSSSENSIKDEEEQMCPICLLGMLDEESLTVCEDGCRNKLHHHCMSIWAEECRRNREPLICPLCRSKWRSHDFYSHELSSPVDSPSSLRAAQQQTVQQQPLAGSRRNQESNFNLTHYGTQQIPPAYKDLAEPWIQVFGMELVGCLFSRNWNVREMALRRLSHDVSGALLLANGESTGNSGGSSGSSPSGGATSGSSQTSISGDVVEACCSVLSMVCADPVYKVYVAALKTLRAMLVYTPCHSLAERIKLQRLLQPVVDTILVKCADANSRTSQLSISTLLELCKGQAGELAVGREILKAGSIGIGGVDYVLNCILGNQTESNNWQELLGRLCLIDRLLLEFPAEFYPHIVSTDVSQAEPVEIRYKKLLSLLTFALQSIDNSHSMVGKLSRRIYLSSARMVTTVPHVFSKLLEMLSVSSSTHFTRMRRRLMAIADEVEIAEAIQLGVEDTLDGQQDSFLQASVPNNYLETTENSSPECTIHLEKTGKGLCATKLSASSEDISERLASISVGPSSSTTTTTTTTEQPKPMVQTKGRPHSQCLNSSPLSHHSQLMFPALSTPSSSTPSVPAGTATDVSKHRLQGFIPCRIPSASPQTQRKFSLQFHRNCPENKDSDKLSPVFTQSRPLPSSNIHRPKPSRPTPGNTSKQGDPSKNSMTLDLNSSSKCDDSFGCSSNSSNAVIPSDETVFTPVEEKCRLDVNTELNSSIEDLLEASMPSSDTTVTFKSEVAVLSPEKAENDDTYKDDVNHNQKCKEKMEAEEEEALAIAMAMSASQDALPIVPQLQVENGEDIIIIQQDTPETLPGHTKAKQPYREDTEWLKGQQIGLGAFSSCYQAQDVGTGTLMAVKQVTYVRNTSSEQEEVVEALREEIRMMSHLNHPNIIRMLGATCEKSNYNLFIEWMAGGSVAHLLSKYGAFKESVVINYTEQLLRGLSYLHENQIIHRDVKGANLLIDSTGQRLRIADFGAAARLASKGTGAGEFQGQLLGTIAFMAPEVLRGQQYGRSCDVWSVGCAIIEMACAKPPWNAEKHSNHLALIFKIASATTAPSIPSHLSPGLRDVALRCLELQPQDRPPSRELLKHPVFRTTW

Molecular target: GST-MKK4 fusion protein [GST: P08515]
Sequence (P08515 whole entry, looked up, the tested form may be a part): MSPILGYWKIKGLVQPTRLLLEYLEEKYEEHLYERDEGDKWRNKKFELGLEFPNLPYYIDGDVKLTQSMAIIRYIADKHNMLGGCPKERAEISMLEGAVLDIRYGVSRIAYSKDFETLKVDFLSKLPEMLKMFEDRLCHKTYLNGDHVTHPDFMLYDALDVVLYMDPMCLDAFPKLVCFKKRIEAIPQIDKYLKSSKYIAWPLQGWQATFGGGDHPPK

Protein	phosphorylation of GST-MKK4 (32P incorporation in kinase reaction, SDS-PAGE and imaging)
B1	The ability of extracts containing his-tagged hMEKK1 to phosphorylate GST-MKK4 was comparable to the activity of purified mouse MEKK1
B2	The ability of extracts containing his-tagged hMEKK1 to phosphorylate GST-MKK4 was comparable to the activity of purified mouse MEKK1, and significantly above the background levels seen with control extracts
